Here are results for one substance from patent US20230014722A1.

For this assay, the target named is cynomolgus PD-1 (Sino Biological), coated on plates (cynomolgus) (UniProt B0LAJ3). Briefly: ELISA, plates coated with cynomolgus PD-1 at 1 µg/ml. For orientation: ELISA stands for enzyme-linked immunosorbent assay.
cynomolgus PD-1 (Sino Biological), coated on plates (cynomolgus), sequence (B0LAJ3 entry or part of it limits assumed): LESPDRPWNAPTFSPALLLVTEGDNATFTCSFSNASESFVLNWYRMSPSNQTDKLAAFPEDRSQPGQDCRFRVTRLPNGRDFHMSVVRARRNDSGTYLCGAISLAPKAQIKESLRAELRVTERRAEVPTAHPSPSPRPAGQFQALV

Consider Keytruda (antibody), for which the EC50 – broadly, the midpoint of the concentration-response curve – amounted to 0.23 nM.
